Measurements as given in the supplement of paper PMC9732359.
± gives the uncertainty stated by the source.

Experiment: protein stability index of a GFP-peptide fusion (yeast GPS) (PSI 1-4); higher = more stable; sorted into four equal gates, so the index is relative within each strain
Outline: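 The protein stability index of a peptide was calculated by multiplying its read frequency in each gate by that gate's number and adding the products. The peptides were tiled 17-residue stretches of yeast proteins, fused downstream of GFP on a Cherry-expressing plasmid and carried in yeast as a pooled library. Mid-log cultures in leucine-free medium were sorted into four equal gates by GFP/Cherry ratio, and each gate's plasmids were PCR-amplified and Illumina-sequenced.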

Row | Sequence | protein stability index (doa10∆) | protein stability index (pdr5∆) | protein stability index (san1∆) | protein stability index (ubr1∆)
1 | LLLLSLFKKITNVNPSK [YML103C/NUP188] | 1.89 ± 0.03 | 1.9 ± 0.027 | 2.24 ± 0.038 | 1.93 ± 0.027
2 | LLSQFGIKVLPETCLFV [YML103C/NUP188] | 2.1 ± 0.075 | 1.55 ± 0.058 | 1.18 ± 0.14 | 1.33 ± 0.059
3 | FVCEKSIEFAKREKRVF [RPN6] |  |  |  | 2.41 ± 0.25
4 | LSNIEAQFLRSVVHPGE [RPO21] | 2.77 ± 0.1 | 2.73 ± 0.21 | 2.45 ± 0.1 | 2.97 ± 0.14
5 | SVRKFLEIALFKYRKAR [RPO31] | 2.31 ± 0.12 | 1.18 ± 0.097 | 1.36 ± 0.17 | 1.32 ± 0.15
6 | MAAALPNPTPSMINSVS [PGD1] | 1.77 ± 0.05 | 2.3 ± 0.061 | 2.05 ± 0.052 | 2.1 ± 0.045
7 | YVSDSDDSSSDNDSLTD [SIR4] | 2.51 ± 0.051 | 2.94 ± 0.038 | 2.67 ± 0.056 | 2.63 ± 0.047
8 | GAAPYAAKLKQTENDLK [RPT1] | 2.06 ± 0.14 | 2.35 ± 0.17 | 2.31 ± 0.24 | 2.93 ± 0.19
9 | FVNGVWHGVHRNPARLM [RPB2] | 1.68 ± 0.11 | 1.44 ± 0.067 | 3.39 ± 0.058 | 1.5 ± 0.042
10 | TLVEIFLERKCVHMVYE [SSN3] | 1.35 ± 0.063 | 1.7 ± 0.071 | 1.52 ± 0.11 | 1.75 ± 0.048
11 | LLSKLLLKHPFKAIHGS [YCS4] | 2.37 ± 0.051 | 2.09 ± 0.05 | 1.67 ± 0.059 | 2.44 ± 0.035
12 | LDRPEYLKKREAGEVKD [RPL10] | 3.27 ± 0.12 | 3.15 ± 0.15 | 3.35 ± 0.044 | 3.42 ± 0.084
13 | TEKDDNKTNNEDLFDDY [NUT1] | 2.92 ± 0.055 | 3.25 ± 0.053 | 3.01 ± 0.052 | 3.08 ± 0.049
14 | IIERYIKSKADAWVSAA [PRP8] | 1.86 ± 0.082 | 1.88 ± 0.072 | 2.39 ± 0.11 | 2.09 ± 0.12
15 | SRAQILQIHSRKMTTDD [RPT5] | 2.72 ± 0.082 | 2.43 ± 0.055 | 2.92 ± 0.068 | 3.08 ± 0.046
16 | FFYLRISKKLQFSYLSS [PCI8] | 1.22 ± 0.076 | 1.24 ± 0.059 | 1.24 ± 0.11 | 1.33 ± 0.044
17 | KHGAKKVAKRTKIKPFI [RPL27A] | 2.91 ± 0.081 | 2.97 ± 0.082 | 2.95 ± 0.059 | 3.24 ± 0.035
18 | VKIVDKDGIRQVDDFQA [PRE1] | 2.86 ± 0.14 | 2.9 ± 0.11 |  | 
19 | AGIRPKFILALNDEGEP [RPN1] |  | 1.9 ± 0.14 | 2.72 ± 0.24 | 1.46 ± 0.073
20 | KLSISNAASQQPTPRSA [GAL11] | 2.57 ± 0.083 | 2.61 ± 0.081 | 2.73 ± 0.058 | 2.91 ± 0.049
21 | ENDLSFALMRYYDRKEE [RRI2] | 3.12 ± 0.13 | 2.88 ± 0.12 | 2.97 ± 0.071 | 2.98 ± 0.073
22 | EAVIDEKLEVIADELMK [ITC1] |  |  | 3.21 ± 0.25 | 3.27 ± 0.12
23 | KSSVPGSAELRNSYPAS [RPN3] | 2.66 ± 0.089 | 3.33 ± 0.076 | 2.73 ± 0.078 | 3.25 ± 0.095
24 | TYDMVGGLTKQIKEIKE [RPT6] | 2.26 ± 0.15 | 2.52 ± 0.17 | 1.89 ± 0.23 | 2.56 ± 0.08
25 | DLKKLNLNVYIQVFEKP [CDC53] | 2.23 ± 0.11 | 2.5 ± 0.17 | 2.33 ± 0.27 | 2.78 ± 0.09
26 | ERSSKRLAKKPSMKKIK [SIR3] | 3.18 ± 0.08 | 3.12 ± 0.084 | 3.06 ± 0.057 | 3.06 ± 0.079

Row | Sequence | protein stability index (doa10∆) | protein stability index (pdr5∆) | protein stability index (san1∆) | protein stability index (ubr1∆)
27 | APTGSGKTNIALLTVLK [BRR2] | 2.88 ± 0.067 | 3.07 ± 0.073 | 3.35 ± 0.052 | 2.88 ± 0.049
28 | ALFFDPSLNPIPHFIDN [PRP8] | 2.64 ± 0.058 | 2.77 ± 0.047 | 2.47 ± 0.057 | 2.61 ± 0.04
29 | SSPEEPFMSYSPQLTAI [SNF12] | 2.45 ± 0.065 | 2.79 ± 0.063 | 2.7 ± 0.066 | 2.77 ± 0.051
30 | IPSIPNPIANHTVTNSP [SNF5] | 2.46 ± 0.039 | 2.68 ± 0.036 | 2.45 ± 0.041 | 2.6 ± 0.027
31 | KDLKFPLPHRVQKSTKT [RPL20A] | 2.27 ± 0.053 | 2.68 ± 0.05 | 2.58 ± 0.052 | 2.69 ± 0.043
32 | PESIRQKKARTILQHLS [PRP8] | 1.21 ± 0.099 | 1.53 ± 0.093 | 1.12 ± 0.21 | 1.21 ± 0.24
33 | TDLENSSLFQEKLLETN [ECM29] | 2.52 ± 0.096 | 2.46 ± 0.079 | 2.49 ± 0.056 | 2.68 ± 0.057
34 | LSDRANKNQDAFEAELS [ARP9] | 3.28 ± 0.072 | 3.13 ± 0.08 | 3.04 ± 0.07 | 3.31 ± 0.057
35 | KTLTGKTITLEVESSDT [RPS31] | 2.62 ± 0.048 | 2.73 ± 0.04 | 2.43 ± 0.065 | 1.97 ± 0.034
36 | DDDAVRREVQIQLQEFL [NSL1] | 3.28 ± 0.093 | 3.27 ± 0.1 | 3.36 ± 0.073 | 3.45 ± 0.089
37 | LPNEAGRLEIFKIHTAK [RPT4] | 2.6 ± 0.16 | 3.07 ± 0.16 | 2.92 ± 0.19 | 2.66 ± 0.11
38 | EWYLSHLCSGILSSVNR [SRB8] | 1.41 ± 0.076 | 1.55 ± 0.079 | 1.25 ± 0.095 | 1.63 ± 0.044
39 | QVILPMSPNHGTFGGDG [FAS2] | 3.12 ± 0.064 | 3.1 ± 0.057 | 3.18 ± 0.061 | 3.07 ± 0.048
40 | IRKTPLAQKKAHLAEIQ [RPL3] | 2.19 ± 0.1 | 1.39 ± 0.066 | 2.77 ± 0.12 | 1.26 ± 0.05
41 | IVLIKGISSAYIKSATL [SNU114] | 1.92 ± 0.087 | 2.05 ± 0.069 | 2.5 ± 0.07 | 2.52 ± 0.064
42 | GGVDVGPSVESYELRNT [SNF5] | 2.9 ± 0.1 | 3.15 ± 0.11 | 3.04 ± 0.075 | 3.28 ± 0.079
43 | QQENSKSGKRKPNIILD [RPC31] | 2.83 ± 0.099 | 2.83 ± 0.086 | 2.64 ± 0.089 | 2.79 ± 0.076
44 | GYVSSLVEPSKVGQFDQ [FAS1] | 1.52 ± 0.082 | 1.94 ± 0.082 | 1.72 ± 0.12 | 1.91 ± 0.078
45 | AKTELNEVSLAIKKSSM [SMC2] | 3.03 ± 0.06 | 3.12 ± 0.087 | 3.04 ± 0.11 | 2.96 ± 0.053
46 | AGYTDNVIRVWQVMTAN [ASC1] | 1.56 ± 0.14 | 1.35 ± 0.08 | 1.5 ± 0.21 | 1.3 ± 0.075
47 | NNPKVKTSKRTKRWYKN [RPS11A] | 3.36 ± 0.091 | 3.28 ± 0.094 | 3.21 ± 0.12 | 3.19 ± 0.087
48 | LQYLPLYAVSTFENTNN [SIR4] | 1.82 ± 0.038 | 1.71 ± 0.042 | 1.41 ± 0.057 | 2.31 ± 0.046
49 | APIQLKIDLLSGQFYFR [RGR1] | 2.63 ± 0.14 | 2.86 ± 0.16 | 2.15 ± 0.23 | 3.02 ± 0.082
50 | FREWQYFKLSITSFDQD [POP8] | 1.94 ± 0.052 | 2.53 ± 0.06 | 2.52 ± 0.061 | 2.51 ± 0.045
51 | NEKMQLLKDIFANNLKS [SIR4] | 2.28 ± 0.048 | 2.41 ± 0.051 | 1.95 ± 0.083 | 2.19 ± 0.048
52 | DRINYTETALMNLKKEL [SRB5] | 3.14 ± 0.14 | 3.28 ± 0.16 | 3.41 ± 0.088 | 3.18 ± 0.095
